# Assay: enzymatic activity of the PPS of interest and its protein mutant strains, genistein as substrate (G7P formation, HPLC)
# Assay type: biochemical
# Details: Mg2+/ATP, 40° C., 10 minutes, pH 7.8, FIG. 30
# Description: After vibration-based mixing and centrifugation (13,000 rpm, 4° C., 5 minutes), the resulting supernatant was collected, diluted, and then analyzed by HPLC. The activity unit was defined as the amount of enzyme required to yield 1 nmol of product per unit time.
# Once an enzyme was prepared, its protein concentration was diluted to 0.1 mg/mL. The enzyme and the enzyme reaction liquid were mixed at a ratio of 1:1 (v/v) and were allowed to react at 40° C. for 10 minutes, at the end of which methanol was added to dilute the protein tenfold and thereby terminate the reaction. The changes in concentration of genistein (GEN) and G7P (a product of GEN phosphorylation) were analyzed. The catalytic activity of the PPS of interest in the present invention and its mutant strains were subsequently calculated and compared, as shown in FIG. 30. […] The activity test results of other protein mutant strains show no total loss of activity but a trend of decrease in activity. […] However, while the aforesaid important catalytic sites in the active domain for stabilizing the phosphate group were inferred with relatively great certainty, the amino acids in Arm1 either had relatively poor prediction results or had important catalytic sites composed of non-polar amino acids (which when substituted with Ala produce little change in property) such that the combined use of site-directed mutagenesis and enzymatic activity determination lacked accuracy.
row,Molecule,catalytic activity (relative specific activity) compared with the PPS of interest
1,"K27A: site-directed mutant of the PPS of interest (SEQ ID NO: 13), Lys27 substituted with Ala (protein, listed as Bacillus subtilis) MKKRGVSNMYSVLFRQAEESSQLAGAAGMNLIKLTKHGLPVPDGFIIQTNALARFMEDNQLQETSENVESGIISGTFSDELKDELTSSFYKLRESYRSVAVRSSSASEDLEGASFAGQYETYLNIKTEEEFLAKVKECWASFFSGRVSSYKKKMNNQIAEPLMGIVVQGLIDSEMSGVIFSRNPVTHDDRELLISASYGLGEAVVSGSVTPDTFIVNKSSFEIQKEIGAKEIYMESAAEGIAEKETSEDMRSRFCLTDEQVIELAEITKKTEDLYGYPVDIEFGIADHQIYLLQARPITTIDQDKKAAEEKRSFMITDTDMNDFWLNMESNIEGPVSPLFSSFIVPALEYGLKKSMQKFPIGVVVDEVKLYRGHIYSKNQGGQQPPSEDCGKELFPILSEHMYDIINHTYLPFYRTLDQLAQTEHTAESALDAFQKLKAFYLTAYEEHFNIVFPQILLTNKLQAMYQDIQGESENAHFYEMLTGKMNKSLETDRCLWLFSMEVQENPNLLTIFENNKPEQLQEKLEQTDEGRHFLKNVHEFLQEYGWRSVKSHDLIEQIWVENPYFALANIQNYVRNGYHFDNEFQKTKEKREKLYNEFLENIEDPGLRTEFDRYYQWTLNSANIKDDHHFYIDAMLDAKARIFLLKIGELLAENGVIQDREDLWFLYDDEVEQALLHPVSLQEKAEKRRQIFHEYELAQAPAYLGTPTKEQLKAAEEIVGAVIEDEKNTENHIFGIAASSGIATGPVKIIRDANEFSQFAPGDVLVCKMTTPLWTSLFQDAKAIITDTGGILSHAAIIAREYGIPAVLGTRTATERLRDGDIITVDGSSGKITVVSRS",lost its activity
2,"H630A: site-directed mutant of the PPS of interest, His630 substituted with Ala (protein) MKKRGVSNMYSVLFRQAEESSQLAGAKGMNLIKLTKHGLPVPDGFIIQTNALARFMEDNQLQETSENVESGIISGTFSDELKDELTSSFYKLRESYRSVAVRSSSASEDLEGASFAGQYETYLNIKTEEEFLAKVKECWASFFSGRVSSYKKKMNNQIAEPLMGIVVQGLIDSEMSGVIFSRNPVTHDDRELLISASYGLGEAVVSGSVTPDTFIVNKSSFEIQKEIGAKEIYMESAAEGIAEKETSEDMRSRFCLTDEQVIELAEITKKTEDLYGYPVDIEFGIADHQIYLLQARPITTIDQDKKAAEEKRSFMITDTDMNDFWLNMESNIEGPVSPLFSSFIVPALEYGLKKSMQKFPIGVVVDEVKLYRGHIYSKNQGGQQPPSEDCGKELFPILSEHMYDIINHTYLPFYRTLDQLAQTEHTAESALDAFQKLKAFYLTAYEEHFNIVFPQILLTNKLQAMYQDIQGESENAHFYEMLTGKMNKSLETDRCLWLFSMEVQENPNLLTIFENNKPEQLQEKLEQTDEGRHFLKNVHEFLQEYGWRSVKSHDLIEQIWVENPYFALANIQNYVRNGYHFDNEFQKTKEKREKLYNEFLENIEDPGLRTEFDRYYQWTLNSANIKDDHAFYIDAMLDAKARIFLLKIGELLAENGVIQDREDLWFLYDDEVEQALLHPVSLQEKAEKRRQIFHEYELAQAPAYLGTPTKEQLKAAEEIVGAVIEDEKNTENHIFGIAASSGIATGPVKIIRDANEFSQFAPGDVLVCKMTTPLWTSLFQDAKAIITDTGGILSHAAIIAREYGIPAVLGTRTATERLRDGDIITVDGSSGKITVVSRS",significant decrease in protein activity
3,"H629A: site-directed mutant of the PPS of interest, His629 substituted with Ala (protein) MKKRGVSNMYSVLFRQAEESSQLAGAKGMNLIKLTKHGLPVPDGFIIQTNALARFMEDNQLQETSENVESGIISGTFSDELKDELTSSFYKLRESYRSVAVRSSSASEDLEGASFAGQYETYLNIKTEEEFLAKVKECWASFFSGRVSSYKKKMNNQIAEPLMGIVVQGLIDSEMSGVIFSRNPVTHDDRELLISASYGLGEAVVSGSVTPDTFIVNKSSFEIQKEIGAKEIYMESAAEGIAEKETSEDMRSRFCLTDEQVIELAEITKKTEDLYGYPVDIEFGIADHQIYLLQARPITTIDQDKKAAEEKRSFMITDTDMNDFWLNMESNIEGPVSPLFSSFIVPALEYGLKKSMQKFPIGVVVDEVKLYRGHIYSKNQGGQQPPSEDCGKELFPILSEHMYDIINHTYLPFYRTLDQLAQTEHTAESALDAFQKLKAFYLTAYEEHFNIVFPQILLTNKLQAMYQDIQGESENAHFYEMLTGKMNKSLETDRCLWLFSMEVQENPNLLTIFENNKPEQLQEKLEQTDEGRHFLKNVHEFLQEYGWRSVKSHDLIEQIWVENPYFALANIQNYVRNGYHFDNEFQKTKEKREKLYNEFLENIEDPGLRTEFDRYYQWTLNSANIKDDAHFYIDAMLDAKARIFLLKIGELLAENGVIQDREDLWFLYDDEVEQALLHPVSLQEKAEKRRQIFHEYELAQAPAYLGTPTKEQLKAAEEIVGAVIEDEKNTENHIFGIAASSGIATGPVKIIRDANEFSQFAPGDVLVCKMTTPLWTSLFQDAKAIITDTGGILSHAAIIAREYGIPAVLGTRTATERLRDGDIITVDGSSGKITVVSRS",significant decrease in protein activity
4,"H795A: site-directed mutant of the PPS of interest, His795 substituted with Ala (protein) MKKRGVSNMYSVLFRQAEESSQLAGAKGMNLIKLTKHGLPVPDGFIIQTNALARFMEDNQLQETSENVESGIISGTFSDELKDELTSSFYKLRESYRSVAVRSSSASEDLEGASFAGQYETYLNIKTEEEFLAKVKECWASFFSGRVSSYKKKMNNQIAEPLMGIVVQGLIDSEMSGVIFSRNPVTHDDRELLISASYGLGEAVVSGSVTPDTFIVNKSSFEIQKEIGAKEIYMESAAEGIAEKETSEDMRSRFCLTDEQVIELAEITKKTEDLYGYPVDIEFGIADHQIYLLQARPITTIDQDKKAAEEKRSFMITDTDMNDFWLNMESNIEGPVSPLFSSFIVPALEYGLKKSMQKFPIGVVVDEVKLYRGHIYSKNQGGQQPPSEDCGKELFPILSEHMYDIINHTYLPFYRTLDQLAQTEHTAESALDAFQKLKAFYLTAYEEHFNIVFPQILLTNKLQAMYQDIQGESENAHFYEMLTGKMNKSLETDRCLWLFSMEVQENPNLLTIFENNKPEQLQEKLEQTDEGRHFLKNVHEFLQEYGWRSVKSHDLIEQIWVENPYFALANIQNYVRNGYHFDNEFQKTKEKREKLYNEFLENIEDPGLRTEFDRYYQWTLNSANIKDDHHFYIDAMLDAKARIFLLKIGELLAENGVIQDREDLWFLYDDEVEQALLHPVSLQEKAEKRRQIFHEYELAQAPAYLGTPTKEQLKAAEEIVGAVIEDEKNTENHIFGIAASSGIATGPVKIIRDANEFSQFAPGDVLVCKMTTPLWTSLFQDAKAIITDTGGILSAAAIIAREYGIPAVLGTRTATERLRDGDIITVDGSSGKITVVSRS",total loss of PPS activity
5,"E329A: site-directed mutant of the PPS of interest, Glu329 substituted with Ala (protein) MKKRGVSNMYSVLFRQAEESSQLAGAKGMNLIKLTKHGLPVPDGFIIQTNALARFMEDNQLQETSENVESGIISGTFSDELKDELTSSFYKLRESYRSVAVRSSSASEDLEGASFAGQYETYLNIKTEEEFLAKVKECWASFFSGRVSSYKKKMNNQIAEPLMGIVVQGLIDSEMSGVIFSRNPVTHDDRELLISASYGLGEAVVSGSVTPDTFIVNKSSFEIQKEIGAKEIYMESAAEGIAEKETSEDMRSRFCLTDEQVIELAEITKKTEDLYGYPVDIEFGIADHQIYLLQARPITTIDQDKKAAEEKRSFMITDTDMNDFWLNMASNIEGPVSPLFSSFIVPALEYGLKKSMQKFPIGVVVDEVKLYRGHIYSKNQGGQQPPSEDCGKELFPILSEHMYDIINHTYLPFYRTLDQLAQTEHTAESALDAFQKLKAFYLTAYEEHFNIVFPQILLTNKLQAMYQDIQGESENAHFYEMLTGKMNKSLETDRCLWLFSMEVQENPNLLTIFENNKPEQLQEKLEQTDEGRHFLKNVHEFLQEYGWRSVKSHDLIEQIWVENPYFALANIQNYVRNGYHFDNEFQKTKEKREKLYNEFLENIEDPGLRTEFDRYYQWTLNSANIKDDHHFYIDAMLDAKARIFLLKIGELLAENGVIQDREDLWFLYDDEVEQALLHPVSLQEKAEKRRQIFHEYELAQAPAYLGTPTKEQLKAAEEIVGAVIEDEKNTENHIFGIAASSGIATGPVKIIRDANEFSQFAPGDVLVCKMTTPLWTSLFQDAKAIITDTGGILSHAAIIAREYGIPAVLGTRTATERLRDGDIITVDGSSGKITVVSRS",relatively significant decrease in activity
6,"D627A: site-directed mutant of the PPS of interest, Asp627 substituted with Ala (protein) MKKRGVSNMYSVLFRQAEESSQLAGAKGMNLIKLTKHGLPVPDGFIIQTNALARFMEDNQLQETSENVESGIISGTFSDELKDELTSSFYKLRESYRSVAVRSSSASEDLEGASFAGQYETYLNIKTEEEFLAKVKECWASFFSGRVSSYKKKMNNQIAEPLMGIVVQGLIDSEMSGVIFSRNPVTHDDRELLISASYGLGEAVVSGSVTPDTFIVNKSSFEIQKEIGAKEIYMESAAEGIAEKETSEDMRSRFCLTDEQVIELAEITKKTEDLYGYPVDIEFGIADHQIYLLQARPITTIDQDKKAAEEKRSFMITDTDMNDFWLNMESNIEGPVSPLFSSFIVPALEYGLKKSMQKFPIGVVVDEVKLYRGHIYSKNQGGQQPPSEDCGKELFPILSEHMYDIINHTYLPFYRTLDQLAQTEHTAESALDAFQKLKAFYLTAYEEHFNIVFPQILLTNKLQAMYQDIQGESENAHFYEMLTGKMNKSLETDRCLWLFSMEVQENPNLLTIFENNKPEQLQEKLEQTDEGRHFLKNVHEFLQEYGWRSVKSHDLIEQIWVENPYFALANIQNYVRNGYHFDNEFQKTKEKREKLYNEFLENIEDPGLRTEFDRYYQWTLNSANIKADHHFYIDAMLDAKARIFLLKIGELLAENGVIQDREDLWFLYDDEVEQALLHPVSLQEKAEKRRQIFHEYELAQAPAYLGTPTKEQLKAAEEIVGAVIEDEKNTENHIFGIAASSGIATGPVKIIRDANEFSQFAPGDVLVCKMTTPLWTSLFQDAKAIITDTGGILSHAAIIAREYGIPAVLGTRTATERLRDGDIITVDGSSGKITVVSRS",significant decrease in protein activity
